Our source for the EC50 values is patent CN115975019A (INST PATHOGEN BIOLOGY CAMS, dated 2023).

The experiment concerns the target T1, SARS-CoV-2 刺突ECD蛋白 (Sinobiological) (SARS-CoV-2, UniProt P0DTC2 14-1213).
T1 construct: extracellular domain; also called Spike ECD蛋白
The experiment can be described thus: ELISA, spike ECD coated 50 ng/well, antibody titrated. A general note: In an ELISA, binding on a coated surface is turned into a signal by an enzyme label.

B1: A46抗体 (antibody, V domains shown)
VH: EVQLLESGGGLIQPGGSLRLSCAVSEFIVSRNYMSWVRQAPGKGLEWVSVLYPGGSTFYADSVKGRFTISRDESTNTLFLQMNTLRVEDTAVYYCARDFGDFYFDFWGQGTLVTVSS
VL: EIVLTQSPGTLSLSPGQRAALSCRASQSVSTYLAWYQQKPGQAPRLLIHDASSRASGVPDRFSGTGSGTDFTLTITRLEPEDFAVYYCQQYGTSPRTFGQGTKLEIK
notes: also called 抗体A46
In the case of B1, the EC50 amounted to 0.0261 µg/mL.

B2: A70抗体 (antibody, V domains shown)
VH: QITLKESGPTLVKPTQTLTLTCTFSGFSLDTPGVAIGWIRQPPGRALEWLGLIYWDGDERYNPSLTSRVTLTKDTSKNQVVLTMTNVDSVDTGTYFCGHKTIPTIFGVWGQGAPVTVSS
VL: QSALTQPASVSGSPGQSITISCAATSGDFGVFNYVSWYQQHPGKAPKLIIFEVSSRPSGVSNRFSGSKSGNTASLTVSGLQAEDEAVYHCSSYSTSSVVFGGGTKLTVL
notes: also called 抗体A70
As to B2, the EC50 was determined as 0.0351 µg/mL.

As usually defined, the EC50 is the concentration that produces a half-maximal response. A lower EC50 goes with higher potency in that assay.
